Experimental data taken from patent US20240270865A1 (INNATE PHARMA, published 2024).

What was measured:
[1] = target: T1, CD73 in human serum (human, UniProt P21589 27-574); assay: cell-based or functional assay
T1 sequence: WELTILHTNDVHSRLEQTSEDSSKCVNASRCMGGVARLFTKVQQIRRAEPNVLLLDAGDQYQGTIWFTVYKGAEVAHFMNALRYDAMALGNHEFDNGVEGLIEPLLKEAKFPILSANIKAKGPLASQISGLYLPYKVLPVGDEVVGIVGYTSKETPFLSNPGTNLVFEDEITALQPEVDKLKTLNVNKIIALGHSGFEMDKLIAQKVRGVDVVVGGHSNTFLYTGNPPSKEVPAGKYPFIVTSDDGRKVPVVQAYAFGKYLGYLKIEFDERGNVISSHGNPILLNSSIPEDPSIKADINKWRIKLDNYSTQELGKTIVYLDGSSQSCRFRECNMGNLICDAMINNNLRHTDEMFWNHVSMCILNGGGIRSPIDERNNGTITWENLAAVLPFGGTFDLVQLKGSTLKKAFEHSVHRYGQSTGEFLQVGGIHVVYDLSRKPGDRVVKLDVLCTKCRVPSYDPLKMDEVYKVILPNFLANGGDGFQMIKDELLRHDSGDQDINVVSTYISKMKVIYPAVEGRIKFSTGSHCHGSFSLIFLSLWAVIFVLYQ

[2] = target: T2, human CD73 expressed on cells (human, UniProt P21589 27-549); assay: cell-based or functional assay
T2 sequence: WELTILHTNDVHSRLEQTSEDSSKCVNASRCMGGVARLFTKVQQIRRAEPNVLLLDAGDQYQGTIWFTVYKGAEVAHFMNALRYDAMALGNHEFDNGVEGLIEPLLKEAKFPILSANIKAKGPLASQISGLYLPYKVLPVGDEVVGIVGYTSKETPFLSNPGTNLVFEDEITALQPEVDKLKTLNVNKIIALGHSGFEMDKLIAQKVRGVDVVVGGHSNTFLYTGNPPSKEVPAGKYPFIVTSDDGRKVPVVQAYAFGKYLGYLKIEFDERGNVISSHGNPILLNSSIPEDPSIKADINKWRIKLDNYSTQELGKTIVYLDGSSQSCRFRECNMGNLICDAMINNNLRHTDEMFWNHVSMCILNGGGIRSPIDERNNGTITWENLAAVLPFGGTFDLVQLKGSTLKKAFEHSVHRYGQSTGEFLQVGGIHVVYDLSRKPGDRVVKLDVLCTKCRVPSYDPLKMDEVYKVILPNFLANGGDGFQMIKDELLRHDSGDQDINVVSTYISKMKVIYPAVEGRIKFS

B1: 2H4+2L1 anti-CD73 antibody (antibody, human IgG1, kappa, V domains shown)
VH: QIQLVQSGAEVKKPGASVKVSCKASGYTFASYNMYWVRQAPGQRLEWIGYIDPYNGGSSYNQKFKGRVTLTRDKSASTAYMELSSLRSEDTAVYYCARGYNNYKAWFAYWGQGTLVTVSS
VL: DIQMTQSPSSLSASVGDRVTITCKASQSVTNDVAWYQQKPGKAPKLLIYYASNRYTGVPSRFSGSGYGTDFTFTISSLQPEDIATYYCQQDYSSLTFGQGTKLEIKR
enzymatic inhibition, in vitro assay on human serum (IC50) [1]: 0.0123 mg/L
enzymatic inhibition, in vitro assay on A375 tumor cells (IC50) [2]: 0.034 mg/L
enzymatic inhibition, in vitro assay on MDA-MB231 tumor cells (IC50) [2]: 0.127 mg/L
reversion of AMP inhibited T cell proliferation on CD4+ T cells (IC50) [2]: 0.0081 mg/L
reversion of AMP inhibited T cell proliferation on CD8+ T cells (IC50) [2]: 0.0077 mg/L
